For assay [1], the target named is T1, Peptide G (rat PAR-2), N-terminal biotinylated (Rat (Rattus norvegicus), N-terminal biotin via G4S linker).
T1 construct: also called Peptide G N-Term
T1 peptide: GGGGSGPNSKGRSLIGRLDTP
The assay is described as follows: peptide ELISA titration. (In an ELISA, binding on a coated surface is turned into a signal by an enzyme label.)

In assay [2] the target is T2, Peptide G (rat PAR-2), C-terminal biotinylated (Rat (Rattus norvegicus), C-terminal biotin via G4S linker).
T2 construct: also called Peptide G C-Term
T2 peptide: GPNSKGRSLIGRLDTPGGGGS
The assay can be described thus: peptide ELISA titration.

For assay [3], the target named is T3, Peptide G (rat PAR-2), unbiotinylated (Rat (Rattus norvegicus)).
T3 construct: also called Peptide G No Biotin
T3 peptide: GPNSKGRSLIGRLDTP
The assay can be described thus: peptide ELISA titration.

The target of assay [4] is T4, Peptide E (mouse PAR-2), N-terminal biotinylated (Mouse (Mus musculus), N-terminal biotin via G4S linker).
T4 construct: also called Peptide E N-Term
T4 peptide: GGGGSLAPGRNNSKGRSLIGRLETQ
The assay is described as follows: peptide ELISA titration.

For assay [5], the target named is T1, Peptide G (rat PAR-2), N-terminal …. The assay can be described thus: SPR, peptide immobilized. On the technique in general: In SPR one partner is held on a chip, and binding of the other changes the refractive index at the surface.
Assay [6] addresses T4, Peptide E (mouse PAR-2), N-terminal …. The assay is described as follows: SPR, peptide immobilized.
The target in assay [7] is T5, Peptide C (human PAR-2), N-terminal biotinylated (Human).
T5 construct: also called Peptide C N-Term
T5 peptide: Biotin-GGGGSSLIGKV
The assay is described as follows: SPR, peptide immobilized.

For the next assay, the target named is T6, Peptide J (pig PAR-2) (Pig (Sus scrofa)).
T6 peptide: GTSRPSKGRSLIGKADNT
The assay can be described thus: SPR, antibody captured. On the procedure:
(§1) Equilibrium dissociation constants (KD values) for antigen binding to selected purified PAR-2 antibodies were determined by surface kinetics using a real-time surface plasmon resonance biosensor assay. Antibody was captured on either a rabbit anti-mouse IgG polyclonal antibody (GE Healthcare, Piscataway, N.J.) surface or a goat anti-human IgG polyclonal antibody (Jackson Immuno Research Lab, West Grove, Pa.) surface created through direct amine chemical coupling to a BIACORE™ CM5 sensor chip to form a captured antibody surface. […] Antigen-antibody binding and dissociation were monitored in real time at room temperature. Kinetic analysis was performed to calculate KD and half-life of antigen/antibody complex dissociation (Table 10). For those antibodies where no T_{1/2} value is shown, steady state analysis was used to calculate the KD value. NB: no binding observed under current experimental conditions. ND: not determined.

The target of the next assay is T7, Peptide H (rabbit PAR-2) (Rabbit (Oryctolagus cuniculus)).
T7 peptide: GTNKTSKGRSLIGRNTGS
The assay can be described thus: SPR, antibody captured. On the procedure:
as §1

Assay [8] deals with T3, Peptide G (rat PAR-2), unbiotinylated. The assay can be described thus: SPR, antibody captured. On the procedure:
as §1

The target of a further assay is T8, Peptide I (dog PAR-2) (Dog (Canis familiaris)).
T8 peptide: GTNRTSKGRSLIGKTDSS
The assay can be described thus: SPR, antibody captured. The protocol:
as §1

Assay [9] addresses T9, Peptide K (human PAR-1), unbiotinylated (Human).
T9 peptide: ATNATLDPRSFLLRNPND
The assay is described as follows: SPR, antibody captured.

Assay [10] addresses T10, Peptide M (human PAR-4), unbiotinylated (Human).
T10 peptide: ESGSTGGGDDSTPSILPAP
The assay is described as follows: SPR, antibody captured.

In assay [11] the target is T11, Peptide L (human PAR-3), unbiotinylated (Human).
T11 peptide: DTNNLAKPTLPIKTFRGA
The assay can be described thus: SPR, antibody captured.

Assay [12] addresses T12, Peptide A (human PAR-2), unbiotinylated (Human).
T12 construct: also called Peptide A No Biotin
T12 peptide: GTNRSSKGRSLIGKVDGT
The assay can be described thus: SPR, antibody captured.

Assay [13] deals with T13, Peptide E (mouse PAR-2), unbiotinylated (Mouse (Mus musculus)).
T13 construct: also called Peptide E No Biotin
T13 peptide: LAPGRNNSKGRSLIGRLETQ
The assay is described as follows: peptide ELISA titration; ELISA titration, bivalent IgG on peptide-coated plate. The protocol:
(§2) Anti-PAR-2 antibodies were tested for their ability to bind to the PAR-2 peptides. Various PAR-2 Peptides (Table 3) were coated onto 96-well plates at a concentration of 2 μg/ml and incubated overnight followed by blocking in a suitable blocking agent for one hour. […] Purified anti-PAR-2 antibodies were added to the plate coated with PAR-2 peptides to a final concentration ranging from 0.2 to 2.0 μg/ml and incubated for one hour at room temperature. Detection of bound antibodies was determined with Horse-Radish Peroxidase (HRP) conjugated anti-mouse or human IgG (Jackson Immuno Research Lab, West Grove, Pa.) and developed by standard colorimetric response using tetramethylbenzidine (TMB) substrate. Absorbance was read at OD₄₅₀ for 0.1 second.
(§3) In another experiment, selected anti-PAR-2 antibodies cloned onto human IgG4 were tested for binding to unbiotinylated and biotinylated forms of PAR-2 peptides (Peptides A, E, F and G; as described above). […] Absorbance values at 450 nm were analyzed using a sigmoidal dose-response model in GraphPad Prism (GraphPad Software, Inc., La Jolla, Calif.) and EC₅₀ values were reported (Table 9). EC₅₀ values are defined as the antibody concentration required to achieve 50% maximal binding to PAR-2 peptide.

In assay [14] the target is T14, full length human PAR-2 (human, UniProt P55085 26-397). The assay is described as follows: cell-based or functional assay.
T14 sequence (P55085 26-397 G138A limits assumed): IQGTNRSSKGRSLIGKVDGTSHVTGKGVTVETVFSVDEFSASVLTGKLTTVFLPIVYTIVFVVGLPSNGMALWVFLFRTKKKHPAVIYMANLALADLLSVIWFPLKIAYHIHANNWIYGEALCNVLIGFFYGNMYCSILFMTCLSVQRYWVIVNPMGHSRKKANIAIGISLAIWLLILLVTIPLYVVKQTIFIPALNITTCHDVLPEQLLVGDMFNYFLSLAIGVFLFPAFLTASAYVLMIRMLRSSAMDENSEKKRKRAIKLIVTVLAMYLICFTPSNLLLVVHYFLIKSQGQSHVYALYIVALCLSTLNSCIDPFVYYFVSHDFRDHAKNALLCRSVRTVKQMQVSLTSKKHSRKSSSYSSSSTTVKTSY
Assay [15] addresses T14, full length human PAR-2. The assay can be described thus: cell-based or functional assay. This is another data set of the same source.
Assay [16] deals with T15, Peptide D (N-terminal domain of human PAR-2-mouse IgG2a) (Human).
T15 chain: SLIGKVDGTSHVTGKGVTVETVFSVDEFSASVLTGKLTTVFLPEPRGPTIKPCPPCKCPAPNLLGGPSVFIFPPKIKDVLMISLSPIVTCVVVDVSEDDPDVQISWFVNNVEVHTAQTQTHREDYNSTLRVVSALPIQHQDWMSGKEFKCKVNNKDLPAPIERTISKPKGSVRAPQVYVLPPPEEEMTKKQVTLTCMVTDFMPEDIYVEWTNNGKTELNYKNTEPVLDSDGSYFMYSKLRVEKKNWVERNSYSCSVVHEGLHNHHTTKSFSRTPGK
The assay is described as follows: peptide ELISA.

Assay [17] concerns the target T13, Peptide E (mouse PAR-2), unbiotinylated. The assay is described as follows: peptide ELISA titration; ELISA titration, antibody 13.3 nM to 0.22 pM, sigmoidal fit. On the procedure:
as §2, §3

We go through 5 molecules from patent US20110059095A1 (Regeneron, published 2011).

Numbering of substitutions follows the chain as printed. Where no end group is shown, it is not given here. The star is where a group is joined. Biotin = O=C1N[C@H]2[C@H](CS[C@H]2CCCCC(=O)*)N1

B1: H4H583P (antibody, human IgG4, V domains shown)
VH: QVQLVESGGGVVQPGMSLRLSCTASGFTFRRYGMHWVRQAPGKGLEWVAVIWYDGSNKYYADSVKGRFTITRDNSKNTLYLQMNSLRAEDTAIYFCASEITIGDWFDPRGQGTLVTVSS
VL: AIQMTQSPSSLSASVGDRVTITCRASQGIRNDLGWFQQKPGKVPKLLIYAASTLHSGVPSRFSGSGFGTDFTLTISSLQPEDFATYYCLQDFNYPLTFGGGTKVEIK
notes: also called H1H583P variable regions
As for B1, the EC50 (usually the concentration that produces a half-maximal response) in assay [1] was found to be 0.015 nM; in assay [2], 0.63 nM; in [3], 0.012 nM; in [4] it was 0.014 nM; in [13], 0.019 nM. Besides, the Kd (in general, the constant that tells how readily two partners part at equilibrium) is 1.49 nM in [5]; 1.68 nM in assay [6]; 190 nM with Peptide J (pig PAR-2); 189 nM with Peptide H (rabbit PAR-2); 530 nM in [8]; 320 nM with Peptide I (dog PAR-2). The molecule also registered a Kd in assay [12] of 37.1 nM. Moreover, the T1/2 in [5] was 13 min; in [6] it was 660 s; in the assay with Peptide J (pig PAR-2) it was 9.6 s; with Peptide H (rabbit PAR-2), 10.2 s; in assay [8], 4.2 s; with Peptide I (dog PAR-2), 9.6 s. This molecule came in with a T1/2 in [12] of 22.2 s. For the same molecule, the binding result in assay [7], in assay [9], in assay [10] and in assay [11] was “no binding” in each case.

B2: H4H588N (antibody, human IgG4, V domains shown)
VH: EVQLLESGGGLVQPGGSLRLSCAASGFTFSSYAMTWVRQAPGKGLYWVSAISGGRGSAYYADSVKGRFTISRDNSKNTLYLQMNSLRAEDTAVYYCAKEGDSGYDLAYWGRGTLVTVSS
VL: DIQMTQSPSSLSASVGDRVTITCRARQGISNNLAWLQQKPGKAPKSLIYAASSLQSGIPSKFSGSGSGTYFTLTISSLQPEDFATYYCQQYKSSPLTFGGGTKVEIK
notes: also called H2M588N variable regions
As for B2, the binding result (in assay [7]; in the assay with Peptide J (pig PAR-2); with Peptide H (rabbit PAR-2); with Peptide I (dog PAR-2); in [9]; in assay [10]) was “no binding” throughout. Besides, the binding result in assay [11] was “no binding”; in [16], “binds”. Further, the “IC50, NF-kB-luciferase, 10 nM Human Trypsin 1” value with full length human PAR-2 [14] is 42.7 nM. In addition, the “IC50, NF-kB-luciferase, 200 nM Factor Xa” value with full length human PAR-2 [14] is 17.1 nM. The “IC50, NF-kB-luciferase, 750 nM Lung Tryptase” value with full length human PAR-2 [14] came to 1.6 nM. Moreover, the “IC50, calcium mobilization FLIPR, 100 nM Trypsin” value with full length human PAR-2 [15] worked out at 29.5 nM.

B3: H4H584P (antibody, human IgG4, V domains shown)
VH: QVQLVESGGGVVQPGRSLRLSCVASGFTFSRYGMHWVRQAPGKGLEWVVVISYDGINKYYADSVKGRFTISRDNSKNTVYLQMNSLRAEDTAVYYCAKGDFWSGYFDYWGQGTLVTVSS
VL: DIVMTQTPLSSPVTLGQPASISCRSSQSLVHSDGNTYLSWLHQRPGQPPRLLIYKISNRFSGVPDRFSGSGAGTDFTLQISRVEAEDVGIYYCMQATQFPTFGGGTKVEIK
notes: also called H1H584P variable regions
Regarding B3, the EC50 in assay [1] amounted to 0.012 nM; in [2], 0.015 nM; in assay [3], 0.013 nM; in [4], 0.511 nM; in assay [13], 2.15 nM. Moreover, the Kd in assay [5] is 1.39 nM; in assay [6] it was > 100 nM; in [8] it was 246 nM; in assay [12], 22 nM. Moreover, the T1/2 in assay [5] amounted to 15 min; in [8], 7.8 s; in assay [12] it was 43.8 s. Also, the binding result (in assay [7]; in the assay with Peptide H (rabbit PAR-2); in assay [9]; in assay [10]; in [11]) was “no binding” in each case.

B4: H4H585P (antibody, human IgG4, V domains shown)
VH: B3 VH with V48L, V49I
VL: B3 VL with A96G
notes: also called H1H585P variable regions
For the molecule B4, the EC50 is 0.017 nM in [1]; 0.021 nM in [2]; 0.018 nM in assay [3]; 0.189 nM in [4]; 0.308 nM in [17]. The Kd in assay [5] is 1.36 nM; in assay [6], > 100 nM; in assay [8], 162 nM; with Peptide I (dog PAR-2) it was 372 nM; in assay [12] it was 8.78 nM. Also, the T1/2 in assay [5] came to 35 min; in assay [8] it was 19.8 s; in the assay with Peptide I (dog PAR-2) it was 11.4 s; in assay [12], 222 s.

B5: H4H581P (antibody, human IgG4, V domains shown)
VH: B3 VH with M34I, V49I
VL: B3 VL
notes: also called mAb H4H581P; H1H581P variable regions
As to B5, the EC50 in [1] is 0.019 nM; in assay [2] it was 0.013 nM; in [3] it was 0.02 nM; in [4], 0.032 nM; in assay [13], 0.029 nM. For the same molecule, the Kd is 0.354 nM in [5]; 1.13 nM in assay [6]; > 100 nM in [7]; 40.2 nM in assay [8]; 143 nM in the assay with Peptide I (dog PAR-2); 9.44 nM in assay [12]. For the same molecule, the T1/2 in assay [5] worked out at 62 min; in assay [6], 1260 s; in [8], 37.8 s; with Peptide I (dog PAR-2), 4.2 s; in [12], 84 s. Moreover, the “IC50, NF-kB-luciferase, 10 nM Human Trypsin 1” value with full length human PAR-2 [14] turned out to be 7.4 nM. Besides, the “IC50, NF-kB-luciferase, 200 nM Factor Xa” value with full length human PAR-2 [14] stood at 5.3 nM. The “IC50, NF-kB-luciferase, 750 nM Lung Tryptase” value with full length human PAR-2 [14] came to 1.1 nM. Further, the values for the binding result (in the assay with Peptide H (rabbit PAR-2); in [16]) were “no binding” and “binds”, respectively. The “IC50, calcium mobilization FLIPR, 100 nM Trypsin” value in the assay with full length human PAR-2 [15] worked out at 55 nM.
